Data published in US20260125451A1 (JIANGSU HENGRUI PHARMACEUTICALS, published 2026).

T1: APRIL (Acro Biosystems, Cat: APL-H52D1) (UniProt O75888 115-250, limits assumed)
T1 construct: also called ARPIL; A proliferation-inducing ligand
T1 sequence (looked up): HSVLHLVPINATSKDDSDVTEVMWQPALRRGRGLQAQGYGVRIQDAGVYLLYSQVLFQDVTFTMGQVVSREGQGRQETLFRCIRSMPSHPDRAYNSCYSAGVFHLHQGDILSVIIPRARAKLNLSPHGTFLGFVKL

T2: type I interferon (IFN) receptor subunit 1 (IFNAR1) (human, UniProt P17181 28-557)
T2 sequence (looked up): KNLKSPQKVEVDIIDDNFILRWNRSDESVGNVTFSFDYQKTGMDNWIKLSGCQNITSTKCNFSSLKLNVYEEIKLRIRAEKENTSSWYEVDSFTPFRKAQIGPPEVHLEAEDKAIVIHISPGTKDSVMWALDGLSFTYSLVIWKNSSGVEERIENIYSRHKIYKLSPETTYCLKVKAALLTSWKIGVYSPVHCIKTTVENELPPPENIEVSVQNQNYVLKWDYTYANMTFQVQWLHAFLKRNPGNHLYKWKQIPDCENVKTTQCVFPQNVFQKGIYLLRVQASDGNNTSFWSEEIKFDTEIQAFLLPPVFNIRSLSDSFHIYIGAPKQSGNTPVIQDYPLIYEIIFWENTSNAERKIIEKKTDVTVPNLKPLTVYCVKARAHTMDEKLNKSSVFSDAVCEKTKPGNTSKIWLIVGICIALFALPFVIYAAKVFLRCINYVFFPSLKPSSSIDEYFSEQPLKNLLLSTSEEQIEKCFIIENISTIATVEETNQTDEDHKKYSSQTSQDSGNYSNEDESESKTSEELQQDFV


Legend:
[1] = target: T1, APRIL (Acro Biosystems, Cat: APL-H52D1); experiment: ELISA, APRIL coated, anti-human Fc-HRP, OD450
Method: The capabilities of fusion proteins B606401, B637302, B746201, and B805201 to bind to BAFF and APRIL were assessed by ELISA as follows:
BAFF (PeproTech, Cat: 310-13) or ARPIL (Acro Biosystems, Cat: APL-H52D1) was diluted to 1 μg/mL with PBS, and a 96-well plate was coated with the dilution overnight at 4° C. The plate was washed with PBST and blocked with Blocking Buffer (PBST containing 1% BSA) at 37° C. for 1 h. The plate was tapped. The test antibodies were diluted with Blocking Buffer. Incubation was performed at 37° C. for 1.5 h. The plate was washed with PBST. An HRP-mouse anti-human Fc antibody (GenScript, Cat: A01854-200) was diluted with Blocking Buffer. Incubation was performed at 37° C. for 40 min. The plate was washed with PBST. 100 μL of TMB substrate solution (Biopanda, Cat: TMB-S-003) was added, and color development was performed at 37° C. for 3 min. 100 μL of ELISA stop solution (Solarbio, Cat: C1058) was added. OD450 was measured.
The EC₅₀ value for the capability of B637302 to bind to APRIL decreased to 1/7 to ⅙ of that of telitacicept.

[2] = target: T1, APRIL (Acro Biosystems, Cat: APL-H52D1); experiment: ELISA, APRIL coated, anti-human Fc-HRP
[3] = target: T2, type I interferon (IFN) receptor …; experiment: cell-based or functional assay
[4] = target: T2, type I interferon (IFN) receptor …; experiment: cell-based or functional assay; remark: listed apart in the source
[5] = target: recombinant human BAFF (R&D cat: 7537-BF-025/CF) (human, UniProt Q9Y275 134-285, limits assumed); experiment: cell-based or functional assay
Sequence of recombinant human BAFF (R&D cat: 7537-BF-025/CF) (Q9Y275 134-285 limits assumed): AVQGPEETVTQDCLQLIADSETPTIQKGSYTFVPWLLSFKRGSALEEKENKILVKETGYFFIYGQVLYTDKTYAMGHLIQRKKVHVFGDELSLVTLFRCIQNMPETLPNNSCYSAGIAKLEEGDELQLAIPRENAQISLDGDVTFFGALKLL

Binder | Emax [1] [nM] | EC50 relative to that of telitacicept [2] [ratio] | IC50, inhibition of IFN-α-induced in vitro differentiation of B cells into plasma cells [3] [nM] | IC50 (nM), inhibition of the activity of type I interferons (IFN-β, HEK-Blue IFN-α/β cells) [4] [nM] | Flow cytometry proliferating B cell proportion (%), mean, BAFF-induced, drug at 10 nM [5] [%] | Flow cytometry proliferating B cell proportion (%), mean, BAFF-induced, drug at 100 nM [5] [%] | Flow cytometry proliferating B cell proportion (%), mean, BAFF-induced, drug at 1000 nM [5] [%]
B746201 (other, Fusion protein of anifrolumab, TACI-19-16 and BCMA-ECD-2) heavy: EVQLVQSGAEVKKPGESLKISCKGSGYIFTNYWIAWVRQMPGKGLESMGIIYPGDSDIRYSPSFQGQVTISADKSITTAYLQWSSLKASDTAMYYCARHDIEGFDYWGRGTLVTVSSASTKGPSVFPLAPSSKSTSGGTAALGCLVKDYFPEPVTVSWNSGALTSGVHTFPAVLQSSGLYSLSSVVTVPSSSLGTQTYICNVNHKPSNTKVDKRVEPKSCDKTHTCPPCPAPEFEGGPSVFLFPPKPKDTLMISRTPEVTCVVVDVSHEDPEVKFNWYVDGVEVHNAKTKPREEQYNSTYRVVSVLTVLHQDWLNGKEYKCKVSNKALPASIEKTISKAKGQPREPQVYTLPPSRDELTKNQVSLTCLVKGFYPSDIAVEWESNGQPENNYKTTPPVLDSDGSFFLYSKLTVDKSRWQQGNVFSCSVMHEALHNHYTQKSLSLSPGKGGGGSGGGGSGGGGSMLQMAGQCSQNEYFDSLLHACIPCQLRCSSNTPPLTCQRYCSTSCREEQGEFYDHLLRDCISCASICGQHPKQCAAFCE light: EIVLTQSPGTLSLSPGERATLSCRASQSVSSSFFAWYQQKPGQAPRLLIYGASSRATGIPDRLSGSGSGTDFTLTITRLEPEDFAVYYCQQYDSSAITFGQGTRLEIKRTVAAPSVFIFPPSDEQLKSGTASVVCLLNNFYPREAKVQWKVDNALQSGNSQESVTEQDSKDSTYSLSSTLTLSKADYEKHKVYACEVTHQGLSSPVTKSFNRGEC | 2.8 | 0.333 | 1.9 | 1.64 |  |  | 
B805201 (other, Anifrolumab with TACI-19-16 at the C-terminus of the heavy chain; also called B80521) heavy: EVQLVQSGAEVKKPGESLKISCKGSGYIFTNYWIAWVRQMPGKGLESMGIIYPGDSDIRYSPSFQGQVTISADKSITTAYLQWSSLKASDTAMYYCARHDIEGFDYWGRGTLVTVSSASTKGPSVFPLAPSSKSTSGGTAALGCLVKDYFPEPVTVSWNSGALTSGVHTFPAVLQSSGLYSLSSVVTVPSSSLGTQTYICNVNHKPSNTKVDKRVEPKSCDKTHTCPPCPAPEFEGGPSVFLFPPKPKDTLMISRTPEVTCVVVDVSHEDPEVKFNWYVDGVEVHNAKTKPREEQYNSTYRVVSVLTVLHQDWLNGKEYKCKVSNKALPASIEKTISKAKGQPREPQVYTLPPSRDELTKNQVSLTCLVKGFYPSDIAVEWESNGQPENNYKTTPPVLDSDGSFFLYSKLTVDKSRWQQGNVFSCSVMHEALHNHYTQKSLSLSPGKGGGGSGGGGSGGGGSSTSCREEQGEFYDHLLRDCISCASICGQHPKQCAAFCE light: EIVLTQSPGTLSLSPGERATLSCRASQSVSSSFFAWYQQKPGQAPRLLIYGASSRATGIPDRLSGSGSGTDFTLTITRLEPEDFAVYYCQQYDSSAITFGQGTRLEIKRTVAAPSVFIFPPSDEQLKSGTASVVCLLNNFYPREAKVQWKVDNALQSGNSQESVTEQDSKDSTYSLSSTLTLSKADYEKHKVYACEVTHQGLSSPVTKSFNRGEC | 2.85 | 0.333 | 6.21 | 1.63 | 20.4 | 24.3 | 15
